Target: the molecule itself
Assay: size exclusion chromatography (Superdex 200 Increase 10/300 GL); self-association of the chain: 92.1 kDa measured against 40.9 kDa calculated for the monomer
Experimental: (A) Molecular sieve chromatography profiling of purified GH117A α-NABH was performed using a Superdex 200 Increase 10/300 GL column equilibrated with 40 mM Tris-HCl (pH 8.0) containing 150 mM NaCl. At this time, a protein solution containing 500 μg GH117A α-NABH was injected into the column, and the column was eluted at 4° C. at a flow rate of 0.3 mL/min, and the protein elution profile was monitored by measuring absorbance at 280 nm. […]
Molecular sieve chromatography was performed using a Superdex 200 Increase 10/300 GL column (GE Healthcare) equilibrated with 40 mM tris-HCl (pH 8.0) and 150 mM NaCl. Purified GH117A α-NABH (0.5 mg/0.5 mL) was injected into the column, and molecular sieve chromatography was performed under conditions of 4° C. and a flow rate of 0.3 mL/min, and protein elution was measured at a wavelength of 280 nm. For the column, a standard curve of retention volume versus protein molecular weight was obtained using size markers such as ferritin (440 kDa), aldolase (158 kDa), ovalbumin (44 kDa), and ribonuclease A (13.7 kDa), and molecular weight of the purified GH117A α-NABH was measured using the curve.

B1: recombinant His-tagged GH117A α-neoagarobiose hydrolase (α-NABH) of Cellvibrio sp. KY-GH-1 (enzyme)
chain: MGDLPEKKLSKASLRAIERGYDQKNADWVFEFDVKPLGGDFAYQEGVIRRDPSAVIFVDGLYHVWYTKGEGETVGFGSANPEDKVFPWDKTEVWHATSSDGWDWKEQGAAIVAGAPGSYDDRAVFTPEVLAHEGRYYLVYQTVKAPYLNRTKECIALASADSPYGPWVKSPAPILTPADNGVWDGDEDNRFNCKIRGDFDSHKVHDPCLMFYQNKFYLYYKGEIMGERMNFGGREIKHGVAIADKIEGPYVKSEFNPITNSGHEVVVWHVNGGIASLLTTDGPEKNTCQWSPDGINFDIMAHIKGAPEALGLYRDPAADIQDPMAGLAWGLCHKYDSSWNWNYICRFKTRRQILDPGTFQNVAS
notes: The entry under measurements means that the chain associates with itself; also called GH117A α-NABH; GH117 A α-NABH; not shown: C-terminal 6x His tag from vector pET-30a (cloned NdeI/XhoI)
B1: binds.

Reference: patent US20250304936A1 (KYUNGPOOK NATIONAL UNIVERSITY INDUSTRY ACADEMIC COOPERATION …, published 2025)
